Assay results taken from the DeepSol protein solubility set.

Assay: soluble on expression in E. coli; label from the status in PepcDB or PDB records

Sequence | soluble on expression in E. coli
MAHHHHHHMKRENVSFPHAQSNVVSNLDGNTLLNDSLVQQSCSPTESKEDVKTEYDSFVDAPVIPLTEKFDDNYSQPVSTVNPRDDSIKCEMDVLPASSLTSVCNRKVIHGEKVDNDRVKIVRDWLLMPVLSQDSDFEGDGDDFIDTLLHIAEDKMYLYGFYERLGQTELVTTRRINNRKRSRGSNGISHATGNQGAQAPVMATSPPQVLPFSFVNWLPNSGKGRCDPERVHQQTISSDAILCSGEKYTLCRYALSSGKLRKECADPYQFLTAKLQEIRHCMEEELMGDAKNSNEKKTGVTDY | not soluble
MGMIIMVGDGMGPAYTSAYRYFQDNPDTEEIEQTVFDRLLVGMASTYPARESGYVTDSAASATALATGFKSYNGAIAVDINKRPLTTIMQMAKARGMSTGVAVTAQVNHATPAAFLTHNESRKNYEAIAADMLKSDADVILGGGRKYFSEALVSQFSAKGYQHITELAQLDSITQPKVLGLFAEVQLPWVIDDTDANTLSKLTQKSLDLLSQNEKGFVLLVEGSLIDWAGHNNDIATAMAEMQGFANAIEVVEQYIRQHPDTLLVVTADHNTGGLSIGANGEYQWDTKLPKGISASPASIATHAIAADDWQAGVNQQLGFDVNSTELQQLTNARMQGKSTLEVALKKIIDTRSYTGWTTSGHTGVDVQVFAMGPAADLFKGNQDNTHIAEKMMSLLPKVN | soluble
MGSDKIHHHHHHMAGTTTTRKKFRVAVSGATVDGREIKPEHLRDAAANYSPDVYGARVNVEHYLSPYPDSDFGAMGDVTALSAEDITDGPLSGRTALYAEIEPSARMKQLTDAGKKVFSSIELHPQFALNGKAYVMGLAMTDTPASLGTERLKFATQQRAQVMAFNNQQAEAPMFSDAIEADVIELTAQRGEEGKQWFNRVMGIMGKGKKSDDERFSQVHQAVEVVAQSQADLSDQFSAVEQARASDKQAIEKLTSDFEALRQKLSVTDGSFSHRPPAGGGNNSQLADY | not soluble
MAPQSNNSTTFVSKTQHYLKVKKPLLERQRRARMNKCLDTLKTLVAEFQGDDAILRMDKAEMLEAALVFMRKQVVKQQAPVSPLPMDSFKNGYMNAVSEISRVMACTPAMSVDVGKTVMTHLGVEFQRMLQADQVQTSVTTSTPRPLSPASSGYHSDNEDSQSAASPKPVEETMWRPWLEHHHHHH | not soluble
MSAFQPTIKRRESTKIYVGNVPIGGDAPIAVQSMTNTRTTDVEATVAQIKSLERVGADIVRVSVPTMDAAEAFKQIKQQVNVPLVADIHFDYRIALKVAEYGVDCLRINPGNIGREDRVRAVVDCARDKNIPIRIGVNAGSLEKDLQEKYGEPTPEALLESALRHVEILDRLNFDQFKVSVKASDVFLAVESYRLLAKAIKQPLHLGITEAGGARAGAVKSAVGLGMLLAEGIGDTLRVSLAADPVEEIKVGFDILKSLRIRSRGINFIACPTCSRQEFDVIGTVNALEQRLEDIITPMDVSIIGCVVNGPGEALVSDLGVTGGNKKSGYYLDGERQKERFDNEDIVNQLEAKIRAKVARQDPKNRII | not soluble
MRIESPQNPRVKALAALKERKERERTGRFLVEGRREVERALEAGLSLETLLLGPKARPEDRALAGGAEVLELSERALARVSTRENPAQVLGVFRLPRRSLAGVTLGAAPLVLVLLGLEKPGNLGAILRAADGAGADLVLVAEGVDLFSPQVIRNSTGAVFALPVYPVAEGEAARFLEEHNLPLVAATPEGERLYWEGDYRGGVAFLLGAEDKGLPEAWKRRAQVRVRIPMRGRADSLNVAVTAALLLYEALRQRSGGAPL | soluble
MSLPPKFWIIIIVKKIDQQSLENAYRLFESGDIHQIEIGSTKGLQQIHHYLFNGLYEFAGKIREQNISKGHFRFANALYLKEALGKIEQMPEDTFENIINKYVEMNIAHPFLEGNGRSTRIWLDLVLKKHLGKVVNWQNVDKTQYLQAMERSPINDLEIRFLLQANLTDDVNNREIIFKGIEQSYYYEGYEKEEGGSHHHHHH | soluble
MKKAVVVFSGGQDSTTCLVQALKEFDEVHAITFDYGQRHKLEIEVAQKIAKDLGVKAHKVMDVGLLNELAISSLTRDDIPVSHELQENGLPNSFVPGRNILFLTLAGIYAYQIGADTVITGVCETDFSGYPDCRDDFVKSMNTALVKGMDRALTIKTPLMWLNKAETWALADQYNALQLVRENTLTCYNGIIGDGCGDCPSCDLRKAGLDEYLNNKDAVMKSLVQKQESEGL | not soluble
MSEQLTDQVLVERVQKGDQKAFNLLVVRYQHKVASLVSRYVPSGDVPDVVQEAFIKAYRALDSFRGDSAFYTWLYRIAVNTAKNYLVAQGRRPPSSDVDAIEAENFESGGALKEISNPENLMLSEELRQIVFRTIESLPEDLRMAITLRELDGLSYEEIAAIMDCPVGTVRSRIFRAREAIDNKVQPLIRR | not soluble
AEDAKLRINGATVTSATNKVTNYIPGVTINLKKETTGAEKLTIQDQSDEKAASMITSFVNTYNALTSTMKTYTGKGTILQASAADLEANRALNNVFQHKKDGNTLFDFGISVDKEGVLKVDETAMKKMVAEDPTAVERFFFGIGGIGDELYQSLNKTFGSTGFISDETTSMTNEINKLNLKLTDITSRNDTLLTNITDQYNKWLEMMQAMQSDAMTLDALIDGMNSSNK | not soluble
MSTDSQNPVRKSCAQPHSCSQEVRLKAMSRSPLTKGLNQLEHLELDKSLTAWSWAEDDPLYLAGENLNGSYLIVAGRVRVSRDTIDGKELTVDIATPGDVIGAIDTEPQPAVDSAWAIETTCALFLPATALATVIEQHPSFALAMIRMQQQRLATARDHEINLTTTTVEQRVAIAVRTLGRKIGQRRPDGILLIQVRIRREDVAGLAGTTVESTSRVLARLRKEGVIDSGREWIAVVDERQLDAIIGEDF | not soluble
MSLKPIFGRGPSLQLRLFFAVMLSASLMLADSRLGAFSHVRFLLNSLVAPIQYAADLPRVLFDDFYDSISSHQQLRENNQLLKREVLTLKSNLLLLEQYKEENQRLRKLLGSSFLRDEKKVVTEVMAVDTSPYRHQVVIDKGRVDGVYEGQPIINEKGIVGQVTFVAAHNSRVLLLIDPNTAIPVQNIRNDIRVIASGNGQTDQIQLEHIPTSTDIEVGDMLVTSGLGGVYPEGYPVAIVSQVDKDTRREFASIKADPVVEFDRLRYLLLIWPNEDRLQKVMQADPQVLLEEEANAQEGHHHHHH | soluble
MSGSHHHHHHSSGIEGRGRLQTRQDVLYLYNWTYYTPTSLIKKFEQQYNVQVVYDDYASNEDMFAKLSIGASGYDLVVPSGDFVSIMKRKHLLEKIDLSKIPNVQFIKESVRARIAYDPKMEYSVPYYLGAAGIAVNKKAVPSYARTWSIFSRKDLAYRMSMMDDMREVMGAALASLGYNVNTKNEQELAQAAILVTDHWKPNLVKFDSDGYAKSFASGDFVVAHGFAEAFFAETPEAMHEHIDFFIPQDVASPVYVDSFCIPKGARNRDLAHAFINFFLEPAHYAEFLDTFGFPSTIHREAAAYQKKTPYYSEHDLERGTLKTDVGAAIEHYNAHWNAVRFR | soluble
SNTLRDFFTNETYTTIENEQHVLTEYRLPGSIERRYYSEEATAPTTVRSVQHVLLPENEEASSDKDLSILSSSFIHKVYKLADKQEAKKKRYSADVNGEKVFFVIKKGLSVNGQSAMMLSYALDSYRDDLAYTLFKQ | not soluble
MSLSATSNSNWDRRSVLRAAAGLAALGPLAACGSNTGRSGGGSSGESLVQYFHAYGEAGTEQAIRRYAKAYDKAAVTTQWITGTNFESKLFSALLTDNAPDVFEFHPQLQMIKSGQVAALDDIIDPVKDDFNPADITSHTVDGKVYGVRMIDDPQFFFYRKSLLEKAGTGVPQTLDELAEAAAKLTTDKVKGLFLGNNMVAPNYALVWAAGADQLNAKNEIAYHTDEVAAALKVYRKMFTSGHLLLDAPADYWDPSALVQGLTAIQWCGMWAMPVMQQALGDDLGIFPFPSAASGAKPAVYNGGWSMFVNAKGKNVDLAKEYVKWLWIDQKKYQEDWALSYGFHIPPRTSTAESATKLKSGLPAEGVKLFTDYGRFDNVSWTQAMISALEGVIADAVRKGKDPEAALDTADKKVNRELKNLFGEGHHHHHH | soluble
LSECKTGNGKNYRGTMSKTKNGITCQKWSSTSPHRPRFSPATHPSEGLEENYCRNPDNDPQGPWCYTTDPEKRYDYCDILECEEECMH | soluble
